For one data set, the target named is T1, GFP-Pif1 (Saccharomyces cerevisiae, UniProt P07271, H705A).
T1 construct: N-terminal superfolder GFP fusion of nuclear isoform residues 40-859, pRSF-Duet-1, E. coli Rosetta2(DE3), Ni-NTA purified
T1 sequence (P07271 40-859 H705A): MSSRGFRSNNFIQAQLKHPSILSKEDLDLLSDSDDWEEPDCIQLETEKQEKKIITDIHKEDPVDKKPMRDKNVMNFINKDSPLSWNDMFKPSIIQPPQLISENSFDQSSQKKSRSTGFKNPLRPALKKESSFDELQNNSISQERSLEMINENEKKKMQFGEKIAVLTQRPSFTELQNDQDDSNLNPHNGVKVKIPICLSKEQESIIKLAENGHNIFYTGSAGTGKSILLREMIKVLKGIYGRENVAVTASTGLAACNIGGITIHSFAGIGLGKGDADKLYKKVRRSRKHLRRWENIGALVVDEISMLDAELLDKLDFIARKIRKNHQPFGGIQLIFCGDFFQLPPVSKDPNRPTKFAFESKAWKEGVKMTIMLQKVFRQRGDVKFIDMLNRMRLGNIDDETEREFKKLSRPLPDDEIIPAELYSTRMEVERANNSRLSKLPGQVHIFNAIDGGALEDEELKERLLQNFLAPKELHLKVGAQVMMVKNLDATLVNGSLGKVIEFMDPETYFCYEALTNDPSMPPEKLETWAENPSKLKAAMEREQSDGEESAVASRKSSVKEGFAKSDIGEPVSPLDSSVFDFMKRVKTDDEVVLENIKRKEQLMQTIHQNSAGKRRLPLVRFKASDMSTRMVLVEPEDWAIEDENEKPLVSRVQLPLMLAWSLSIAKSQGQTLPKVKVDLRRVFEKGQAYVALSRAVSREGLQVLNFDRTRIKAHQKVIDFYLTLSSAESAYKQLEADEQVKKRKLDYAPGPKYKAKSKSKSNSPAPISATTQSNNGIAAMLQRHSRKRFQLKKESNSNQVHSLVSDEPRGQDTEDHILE
The data set can be described thus: ATP hydrolysis, [γ-32P]-ATP TLC, Michaelis-Menten fit. The conditions noted are these: M13 ssDNA 1.5 μM nt, 10 nM Pif1, 5 mM MgCl2, 60 mM KCl, pH 7.5, 30 °C, no RPA; labelled compound as tracer. In kind it is biochemical.

For another data set, the target named is T2, GFP-Pif1 K387A (Saccharomyces cerevisiae, UniProt P07271 40-859, K387A).
T2 sequence: T1 sequence (P07271 40-859 H705A) with K348A, A666H
The data set can be described thus: EMSA; no ATP, 5 mM Mg2+; 35 mM Tris-HCl pH 7.5, 1 mM DTT, 5 mM MgCl2, 60 mM KCl, 0.1 mg/ml BSA, no ATP, 30 min at 30 C; 5 nM ssDNA. The following applies: protein: recombinant; tags: N-terminal superfolder GFP; Ni-NTA purified; label: 5' Alexa647. A general note: In EMSA bound probe runs differently from free probe, usually more slowly.

A further data set addresses T3, GFP-Pif1 K312A (Saccharomyces cerevisiae, UniProt P07271 40-859, K312A).
T3 sequence: T1 sequence (P07271 40-859 H705A) with K273A, A666H
The data set is described as above. The following applies: protein: recombinant; tags: N-terminal superfolder GFP; Ni-NTA purified; label: 5' Alexa647.

Where a chain is given by its changes, count along the chain named.

What is called Km is the substrate concentration at which the rate is half of its maximum. Turning to `Nc1ncnc2c1ncn2[C@@H]1O[C@H](COP(=O)(O)OP(=O)(O)OP(=O)(O)O)[C@@H](O)[C@H]1O` [ATP], the Km at GFP-Pif1 was 1210 µM.
What is called Kd is the constant that tells how readily two partners part at equilibrium. As for GCTAGCAGTAGCCAGCATCGAACGTACGATCGGTAACGTA (ssDNA) [40-nt ssDNA], the Kd was determined as 29 nM in the data set with GFP-Pif1 K387A and 40 nM in the data set with GFP-Pif1 K312A.

For the origin of these results see article PMC10279920, “Single-molecule visualization of Pif1 helicase translocation on single-stranded DNA” (The Journal of Biological Chemistry, 2023).
